This experiment addresses Kcna2 protein (Kv1.2), endogenous in rat dorsal root ganglion neurons (rat) (UniProt P63142). Kind of experiment: cell-based or functional assay.
Sequence of UniProt P63142 (P63142 whole entry): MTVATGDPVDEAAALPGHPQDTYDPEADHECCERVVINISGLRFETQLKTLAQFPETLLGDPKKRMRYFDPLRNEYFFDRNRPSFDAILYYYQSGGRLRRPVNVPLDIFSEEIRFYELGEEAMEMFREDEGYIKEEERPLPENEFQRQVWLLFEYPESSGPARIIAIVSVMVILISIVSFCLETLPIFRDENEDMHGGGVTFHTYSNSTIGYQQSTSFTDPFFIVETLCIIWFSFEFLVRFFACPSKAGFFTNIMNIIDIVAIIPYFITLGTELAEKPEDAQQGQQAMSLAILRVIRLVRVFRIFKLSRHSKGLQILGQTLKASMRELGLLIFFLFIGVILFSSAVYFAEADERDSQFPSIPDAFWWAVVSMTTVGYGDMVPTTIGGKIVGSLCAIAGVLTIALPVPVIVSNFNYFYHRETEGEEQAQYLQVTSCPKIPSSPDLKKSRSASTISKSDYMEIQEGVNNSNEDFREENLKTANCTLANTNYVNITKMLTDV

For the substance “maurotoxin (from UniProt P80719 1-34) (peptide)”, the total voltage-gated potassium current retained at +50 mV after 100 nM MTX, large DRG neurons, Kcna2 antisense-treated group (Kcna2 downregulated) is 92.3 % of current; the total voltage-gated potassium current retained at +50 mV after 100 nM MTX, large DRG neurons, control group (whole-cell voltage clamp) was 81.7 % of current; the total voltage-gated potassium current retained at +50 mV after 100 nM MTX, medium DRG neurons, Kcna2 antisense-treated group (Kcna2 downregulated) is 94.9 % of current; the total voltage-gated potassium current retained at +50 mV after 100 nM MTX, medium DRG neurons, control group (whole-cell voltage clamp) is 85.1 % of current.

Source of the values: US20150368652A1.
